Results from the supplement of paper PMC9112550, “Optimization of the antimicrobial peptide Bac7 by deep mutational scanning” (BMC Biology, 2022).

Tested on: Escherichia coli TOP10
Assay: shrunken log2 fold change of peptide-encoding DNA abundance (4.5 h post-induction vs induction); higher = less antimicrobial activity (less host growth inhibition)
Conditions: time post-induction: 4.5 h; library: site-saturation at positions 5, 18, 19, 20
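Also: peptides expressed intracellularly from a pBAD plasmid library in pooled LB shake-flask culture, induced with 0.3% L-arabinose, DNA abundance read by NGS, three biological replicates, DESeq2 with apeglm shrinkage.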

Sequence: RRIRKRPPRLPRPRPRPVRGPRP
- shrunken log2 fold change: 0.732

Sequence: RRIRVRPPRLPRPRPRPGTWPRP
- shrunken log2 fold change: -0.0352

Sequence: RRIRFRPPRLPRPRPRPCLGPRP
- shrunken log2 fold change: -0.201

Sequence: RRIRQRPPRLPRPRPRPATQPRP
- shrunken log2 fold change: 0.176

Sequence: RRIRTRPPRLPRPRPRPEDEPRP
- shrunken log2 fold change: 0.0995

Sequence: RRIRRRPPRLPRPRPRPEWYPRP
- shrunken log2 fold change: -0.128

Sequence: RRIRNRPPRLPRPRPRPFVNPRP
- shrunken log2 fold change: -0.0775

Sequence: RRIRLRPPRLPRPRPRPFDIPRP
- shrunken log2 fold change: -0.0171

Sequence: RRIRTRPPRLPRPRPRPMQCPRP
- shrunken log2 fold change: -0.00968

Sequence: RRIRLRPPRLPRPRPRPTSRPRP
- shrunken log2 fold change: 0.0104

Sequence: RRIRLRPPRLPRPRPRPMHRPRP
- shrunken log2 fold change: -0.274

Sequence: RRIRSRPPRLPRPRPRPWIDPRP
- shrunken log2 fold change: -0.615

Sequence: RRIRHRPPRLPRPRPRPGYMPRP
- shrunken log2 fold change: -0.49

Sequence: RRIRTRPPRLPRPRPRPDPTPRP
- shrunken log2 fold change: -0.0451

Sequence: RRIRDRPPRLPRPRPRPPPRPRP
- shrunken log2 fold change: 1.1

Sequence: RRIRPRPPRLPRPRPRPHDHPRP
- shrunken log2 fold change: 0.0287

Sequence: RRIRTRPPRLPRPRPRPHHQPRP
- shrunken log2 fold change: -0.272

Sequence: RRIRFRPPRLPRPRPRPFDGPRP
- shrunken log2 fold change: -0.251

Sequence: RRIRSRPPRLPRPRPRPSLWPRP
- shrunken log2 fold change: 0.122

Sequence: RRIRQRPPRLPRPRPRPMKQPRP
- shrunken log2 fold change: -0.0134

Sequence: RRIRVRPPRLPRPRPRPLTNPRP
- shrunken log2 fold change: -0.447

Sequence: RRIRQRPPRLPRPRPRPRQAPRP
- shrunken log2 fold change: 0.0647

Sequence: RRIRFRPPRLPRPRPRPLGHPRP
- shrunken log2 fold change: -0.0599

Sequence: RRIRQRPPRLPRPRPRPKVSPRP
- shrunken log2 fold change: -0.073

Sequence: RRIRLRPPRLPRPRPRPYEKPRP
- shrunken log2 fold change: -0.159

Sequence: RRIRARPPRLPRPRPRPDHAPRP
- shrunken log2 fold change: -0.0131

Sequence: RRIRVRPPRLPRPRPRPELNPRP
- shrunken log2 fold change: -0.0839

Sequence: RRIRDRPPRLPRPRPRPIIYPRP
- shrunken log2 fold change: -0.313

Sequence: RRIRMRPPRLPRPRPRPVCMPRP
- shrunken log2 fold change: 0.392

Sequence: RRIRPRPPRLPRPRPRPYKIPRP
- shrunken log2 fold change: -0.227

Sequence: RRIRQRPPRLPRPRPRPSFMPRP
- shrunken log2 fold change: -0.509

Sequence: RRIRARPPRLPRPRPRPIKIPRP
- shrunken log2 fold change: -0.095

Sequence: RRIRERPPRLPRPRPRPVPCPRP
- shrunken log2 fold change: -0.193

Sequence: RRIRGRPPRLPRPRPRPRLWPRP
- shrunken log2 fold change: 1.36

Sequence: RRIRIRPPRLPRPRPRPVREPRP
- shrunken log2 fold change: 0.201

Sequence: RRIRTRPPRLPRPRPRPNYFPRP
- shrunken log2 fold change: -0.062

Sequence: RRIRERPPRLPRPRPRPYYYPRP
- shrunken log2 fold change: -0.732

Sequence: RRIRCRPPRLPRPRPRPMYIPRP
- shrunken log2 fold change: -0.675

Sequence: RRIRTRPPRLPRPRPRPKMRPRP
- shrunken log2 fold change: 0.0419

Sequence: RRIRFRPPRLPRPRPRPSQMPRP
- shrunken log2 fold change: -0.208

Sequence: RRIRRRPPRLPRPRPRPHKQPRP
- shrunken log2 fold change: -0.00379

Sequence: RRIRWRPPRLPRPRPRPNDCPRP
- shrunken log2 fold change: -0.0115

Sequence: RRIRVRPPRLPRPRPRPSQLPRP
- shrunken log2 fold change: -0.234

Sequence: RRIRIRPPRLPRPRPRPYNTPRP
- shrunken log2 fold change: -0.725

Sequence: RRIRRRPPRLPRPRPRPLSMPRP
- shrunken log2 fold change: 0.263

Sequence: RRIRHRPPRLPRPRPRPIVPPRP
- shrunken log2 fold change: 0.0781

Sequence: RRIRNRPPRLPRPRPRPSTLPRP
- shrunken log2 fold change: -0.474

Sequence: RRIRKRPPRLPRPRPRPGRSPRP
- shrunken log2 fold change: 0.256

Sequence: RRIRFRPPRLPRPRPRPRDPPRP
- shrunken log2 fold change: 0.553

Sequence: RRIRKRPPRLPRPRPRPSVGPRP
- shrunken log2 fold change: 0.0485

Sequence: RRIRYRPPRLPRPRPRPHMYPRP
- shrunken log2 fold change: -0.327

Sequence: RRIRNRPPRLPRPRPRPRSHPRP
- shrunken log2 fold change: -0.127

Sequence: RRIRRRPPRLPRPRPRPKNMPRP
- shrunken log2 fold change: -0.00338

Sequence: RRIRCRPPRLPRPRPRPVHLPRP
- shrunken log2 fold change: 0.0885

Sequence: RRIRCRPPRLPRPRPRPAPAPRP
- shrunken log2 fold change: 0.84

Sequence: RRIRTRPPRLPRPRPRPIDLPRP
- shrunken log2 fold change: -1.07

Sequence: RRIRWRPPRLPRPRPRPLPSPRP
- shrunken log2 fold change: 0.515

Sequence: RRIRLRPPRLPRPRPRPTKNPRP
- shrunken log2 fold change: 0.00698

Sequence: RRIRYRPPRLPRPRPRPRYLPRP
- shrunken log2 fold change: -0.176

Sequence: RRIRMRPPRLPRPRPRPVESPRP
- shrunken log2 fold change: 0.00581

Sequence: RRIRKRPPRLPRPRPRPYHHPRP
- shrunken log2 fold change: -0.247

Sequence: RRIRVRPPRLPRPRPRPAHSPRP
- shrunken log2 fold change: 0.0902

Sequence: RRIRWRPPRLPRPRPRPNTQPRP
- shrunken log2 fold change: 0.448

Sequence: RRIRPRPPRLPRPRPRPHWTPRP
- shrunken log2 fold change: -0.119

Sequence: RRIRKRPPRLPRPRPRPRRPPRP
- shrunken log2 fold change: 0.544

Sequence: RRIRLRPPRLPRPRPRPRYSPRP
- shrunken log2 fold change: -0.087

Sequence: RRIRTRPPRLPRPRPRPGHGPRP
- shrunken log2 fold change: 0.138

Sequence: RRIRYRPPRLPRPRPRPKKPPRP
- shrunken log2 fold change: 0.00704

Sequence: RRIRHRPPRLPRPRPRPKYAPRP
- shrunken log2 fold change: -0.0413

Sequence: RRIRYRPPRLPRPRPRPAKRPRP
- shrunken log2 fold change: 0.167

Sequence: RRIRRRPPRLPRPRPRPKVLPRP
- shrunken log2 fold change: 0.378

Sequence: RRIRHRPPRLPRPRPRPESLPRP
- shrunken log2 fold change: -0.245

Sequence: RRIRGRPPRLPRPRPRPPREPRP
- shrunken log2 fold change: 1.3

Sequence: RRIRSRPPRLPRPRPRPMEPPRP
- shrunken log2 fold change: 0.0473

Sequence: RRIRFRPPRLPRPRPRPIRGPRP
- shrunken log2 fold change: -0.0057

Sequence: RRIRRRPPRLPRPRPRPPMGPRP
- shrunken log2 fold change: 0.554

Sequence: RRIRTRPPRLPRPRPRPKKDPRP
- shrunken log2 fold change: -0.147

Sequence: RRIRARPPRLPRPRPRPRDSPRP
- shrunken log2 fold change: 0.499

Sequence: RRIRNRPPRLPRPRPRPPNSPRP
- shrunken log2 fold change: -0.072

Sequence: RRIRVRPPRLPRPRPRPYSPPRP
- shrunken log2 fold change: -0.181

Sequence: RRIRPRPPRLPRPRPRPQIPPRP
- shrunken log2 fold change: -0.0392

Sequence: RRIRDRPPRLPRPRPRPCADPRP
- shrunken log2 fold change: 0.167

Sequence: RRIRWRPPRLPRPRPRPWCDPRP
- shrunken log2 fold change: -0.0997

Sequence: RRIRGRPPRLPRPRPRPFGDPRP
- shrunken log2 fold change: 0.0154

Sequence: RRIRQRPPRLPRPRPRPPTPPRP
- shrunken log2 fold change: 0.538

Sequence: RRIRHRPPRLPRPRPRPQLQPRP
- shrunken log2 fold change: 0.0457

Sequence: RRIRYRPPRLPRPRPRPMLTPRP
- shrunken log2 fold change: -0.0378

Sequence: RRIRSRPPRLPRPRPRPLMLPRP
- shrunken log2 fold change: -0.581

Sequence: RRIRKRPPRLPRPRPRPFQTPRP
- shrunken log2 fold change: 0.12

Sequence: RRIRGRPPRLPRPRPRPLLLPRP
- shrunken log2 fold change: 0.607

Sequence: RRIRKRPPRLPRPRPRPGPGPRP
- shrunken log2 fold change: 0.493

Sequence: RRIRRRPPRLPRPRPRPAGNPRP
- shrunken log2 fold change: -0.0218

Sequence: RRIRARPPRLPRPRPRPWNWPRP
- shrunken log2 fold change: 0.376

Sequence: RRIRPRPPRLPRPRPRPQMLPRP
- shrunken log2 fold change: 0.0602

Sequence: RRIRARPPRLPRPRPRPLFDPRP
- shrunken log2 fold change: 0.28

Sequence: RRIRARPPRLPRPRPRPKDEPRP
- shrunken log2 fold change: 0.687

Sequence: RRIRCRPPRLPRPRPRPFTPPRP
- shrunken log2 fold change: -0.497

Sequence: RRIRKRPPRLPRPRPRPWVNPRP
- shrunken log2 fold change: 0.0319

Sequence: RRIRNRPPRLPRPRPRPSQDPRP
- shrunken log2 fold change: -0.102

Sequence: RRIRERPPRLPRPRPRPPCFPRP
- shrunken log2 fold change: -0.0819

Sequence: RRIRKRPPRLPRPRPRPFYCPRP
- shrunken log2 fold change: -0.0322

Sequence: RRIRHRPPRLPRPRPRPLMDPRP
- shrunken log2 fold change: -0.974

Sequence: RRIRNRPPRLPRPRPRPAPYPRP
- shrunken log2 fold change: 0.0296

Sequence: RRIRTRPPRLPRPRPRPFYVPRP
- shrunken log2 fold change: -0.45

Sequence: RRIRQRPPRLPRPRPRPLRAPRP
- shrunken log2 fold change: 0.825

Sequence: RRIRERPPRLPRPRPRPIVNPRP
- shrunken log2 fold change: -0.0349

Sequence: RRIRIRPPRLPRPRPRPKMIPRP
- shrunken log2 fold change: -0.379

Sequence: RRIRERPPRLPRPRPRPTHSPRP
- shrunken log2 fold change: -0.335

Sequence: RRIRARPPRLPRPRPRPHQNPRP
- shrunken log2 fold change: 0.409

Sequence: RRIRNRPPRLPRPRPRPLGLPRP
- shrunken log2 fold change: -0.0325

Sequence: RRIRVRPPRLPRPRPRPKPWPRP
- shrunken log2 fold change: 0.376

Sequence: RRIRRRPPRLPRPRPRPMPEPRP
- shrunken log2 fold change: 0.124

Sequence: RRIRKRPPRLPRPRPRPFHRPRP
- shrunken log2 fold change: -0.0303

Sequence: RRIRLRPPRLPRPRPRPHIFPRP
- shrunken log2 fold change: -0.747

Sequence: RRIRKRPPRLPRPRPRPDGLPRP
- shrunken log2 fold change: -0.162

Sequence: RRIRDRPPRLPRPRPRPNTYPRP
- shrunken log2 fold change: -0.127

Sequence: RRIRERPPRLPRPRPRPKMGPRP
- shrunken log2 fold change: 0.00452

Sequence: RRIRHRPPRLPRPRPRPHCHPRP
- shrunken log2 fold change: -0.551

Sequence: RRIRKRPPRLPRPRPRPRLEPRP
- shrunken log2 fold change: 0.782

Sequence: RRIRQRPPRLPRPRPRPSGMPRP
- shrunken log2 fold change: -0.143

Sequence: RRIRLRPPRLPRPRPRPTEQPRP
- shrunken log2 fold change: 0.0272

Sequence: RRIRKRPPRLPRPRPRPSCNPRP
- shrunken log2 fold change: 0.149

Sequence: RRIRFRPPRLPRPRPRPEYTPRP
- shrunken log2 fold change: -0.0548

Sequence: RRIRHRPPRLPRPRPRPMAAPRP
- shrunken log2 fold change: 0.53

Sequence: RRIRVRPPRLPRPRPRPRVDPRP
- shrunken log2 fold change: 0.455
